T1: recombinant human PLVAP51-442 protein (extracellular domain, His tag removed by thrombin) (human, UniProt Q9BX97 51-442)
T1 construct: also called recombinant PLVAP protein; recombinant PLVAP
T1 sequence: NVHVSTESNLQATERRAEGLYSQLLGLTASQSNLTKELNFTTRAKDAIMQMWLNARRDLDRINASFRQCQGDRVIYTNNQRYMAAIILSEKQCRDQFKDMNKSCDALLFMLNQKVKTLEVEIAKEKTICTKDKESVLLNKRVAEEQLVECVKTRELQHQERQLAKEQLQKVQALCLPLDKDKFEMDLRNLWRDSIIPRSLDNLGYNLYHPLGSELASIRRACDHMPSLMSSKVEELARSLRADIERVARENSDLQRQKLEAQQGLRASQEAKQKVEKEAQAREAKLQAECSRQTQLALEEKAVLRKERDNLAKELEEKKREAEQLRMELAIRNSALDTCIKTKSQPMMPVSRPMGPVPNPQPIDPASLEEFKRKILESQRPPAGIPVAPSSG


Tests used:
[1] = molecular target: T1, recombinant human PLVAP51-442 protein …; assay: competition ELISA on coated recombinant PLVAP; competitor biotinylated murine KFCC-GY5
Protocol: (§1) The binding of KFCC-GY4 and KFCC-GY5 human antibody variants to recombinant PLVAP was assessed in a competition ELISA. Either a dilution series of variant or control antibody from 30 μg/m to 0.014 μg/m (final concentration) was premixed with a constant concentration of biotinylated murine KFCC-GY4 (0.3 μg/ml, final concentration) or a dilution series of variant or control antibody from 10 μg/m to 0.004 μg/ml (final concentration) was premixed with a constant concentration of biotinylated murine KFCC-GY5 (0.1 μg/ml, final concentration) before incubating for 1 hour at room temperature on a Nunc Immuno MaxiSorp 96 well flat bottom microtitre plate (Fisher Catalogue No. DIS-971-030J) precoated with 1 μg/m recombinant “protein P” diluted in PBS. The binding of the biotinylated mAb was determined by detection with streptavidin-HRP and TMB substrate. After stopping the reaction with 3M HCl, absorbance was measured at 450 nm on a Dynex Technologies MRX TC II plate reader and the binding curves of the test antibodies compared against the mouse reference standard.
Similarly, the four lead variants of IgG4-GY5 and murine KFCC-GY5 antibodies have very similar binding profiles (FIG. 49). All of the lead variants shown are within two-fold of the original murine monoclonal antibody.

[2] = molecular target: T1, recombinant human PLVAP51-442 protein …; assay: competition ELISA on coated recombinant PLVAP; competitor biotinylated murine KFCC-GY4
Protocol: as §1
The five lead variants of IgG4-GY4 and murine KFCC-GY4 antibodies have very similar binding profiles (FIG. 48). All of the lead variants shown are within two-fold of the original murine monoclonal antibody.

IC50 [1] | IC50 (ratio compared to GY5 mAb) [1] | IC50 [2] | IC50 (ratio compared to GY4 mAb) [2] | Binder
0.56 µg/mL | 1.47 | – | – | humanized KFCC-GY5 antibody CSR02-VH4/VK2 (antibody, human IgG4, V domains shown, also called VH4/VK2 (GY5 variant); CSR02-VH4NK2) VH: QVQLVQSGSELKKPGASVKVSCKASGYTFTSNYINWVRQAPGQGLEWIGNIYPSDGFTNYNQKFKDRVTITVDKSTSTAYMELSSLRSEDTAVYYCTRNFDVWGQGTTVTVSS VL: DVVMTQSPLSLPVTLGQPASISCRSSQSLVHSNGNTYLQWYLQKPGQSPQLLIYTVSNRFSGVPDRFSGSGSGTDFTLKISRVEAEDVGVYFCSQSTHVPFTFGQGTKLEIKR
0.41 µg/mL | 1.08 | – | – | humanized KFCC-GY5 antibody CSR02-VH5/VK3 (antibody, human IgG4, V domains shown, also called VH5/VK3 (GY5 variant); CSR02-VH5NK3) VH: QVQLVQSGSELKKPGASVKVSCKASGYTFTSNYINWVRQAPGQGLEWMGNIYPSDGFTNYNQKFKDRVTITVDKSTSTAYMELSSLRSEDTAVYYCTRNFDVWGQGTTVTVSS VL: DVVMTQSPLSLPVTLGQPASISCRSSQSLVHSNGNTYLQWYLQKPGQSPQLLIYTVSNRFSGVPDRFSGSGSGPDFTLKISRVEAEDVGVYYCSQSTHVPFTFGQGTKLEIKR
0.6 µg/mL | 1.58 | – | – | humanized KFCC-GY5 antibody CSR02-VH5/VK2 (antibody, human IgG4, V domains shown, also called VH5/VK2 (GY5 variant); CSR02-VH5NK2) VH: QVQLVQSGSELKKPGASVKVSCKASGYTFTSNYINWVRQAPGQGLEWMGNIYPSDGFTNYNQKFKDRVTITVDKSTSTAYMELSSLRSEDTAVYYCTRNFDVWGQGTTVTVSS VL: DVVMTQSPLSLPVTLGQPASISCRSSQSLVHSNGNTYLQWYLQKPGQSPQLLIYTVSNRFSGVPDRFSGSGSGTDFTLKISRVEAEDVGVYFCSQSTHVPFTFGQGTKLEIKR
– | – | 1.91 µg/mL | 1.05 | humanized KFCC-GY4 antibody CSR01-VH5/VK2 (antibody, human IgG4, V domains shown, also called VH5/VK2 (GY4 variant); CSR01-VH5NK2) VH: EVQLVQSGAEVKKPGASVKVSCTASGFNIKDYYIHWVRQAPGQGLEWIGWIDPENGDIEYAPKFQGRATITADTSTDTAYMELSSLRSEDTAVYYCLYQEGSWGQGTTVTVSS VL: DVVMTQSPLSLPVTLGQPASISCKSSQSLLNSDGKTYLNWLQQRPGQSPRRLIYLVSKLDSGVPDRFTGSGSGTDFTLKISRVEAEDVGVYYCWQGTHFPFTFGGGTKVEIKR
– | – | 2.82 µg/mL | 1.55 | humanized KFCC-GY4 antibody CSR01-VH5/VK3 (antibody, human IgG4, V domains shown, also called VH5/VK3 (GY4 variant); VH5/VK3 IgG4) VH: EVQLVQSGAEVKKPGASVKVSCTASGFNIKDYYIHWVRQAPGQGLEWIGWIDPENGDIEYAPKFQGRATITADTSTDTAYMELSSLRSEDTAVYYCLYQEGSWGQGTTVTVSS VL: DVVMTQSPLSLPVTLGQPASISCKSSQSLLNSDGKTYLNWLQQRPGQSPRRLIYLVSKLDSGVPDRFSGSGSGTDFTLKISRVEAEDVGVYYCWQGTHFPFTFGGGTKVEIKR
– | – | 2.94 µg/mL | 1.61 | humanized KFCC-GY4 antibody CSR01-VH4/VK3 (antibody, human IgG4, V domains shown, also called VH4/VK3 (GY4 variant); CSR01-VH4NK3) VH: EVQLVQSGAEVKKPGASVKVSCTASGFNIKDYYIHWVRQAPGQGLEWIGWIDPENGDIEYAPKFQGRATITADTSTDTAYMEFSSLRSEDTAVYYCLYQEGSWGQGTTVTVSS VL: DVVMTQSPLSLPVTLGQPASISCKSSQSLLNSDGKTYLNWLQQRPGQSPRRLIYLVSKLDSGVPDRFSGSGSGTDFTLKISRVEAEDVGVYYCWQGTHFPFTFGGGTKVEIKR
– | – | 2.53 µg/mL | 1.39 | humanized KFCC-GY4 antibody CSR01-VH4/VK2 (antibody, human IgG4, V domains shown, also called VH4/VK2 (GY4 variant); CSR01-VH4NK2) VH: EVQLVQSGAEVKKPGASVKVSCTASGFNIKDYYIHWVRQAPGQGLEWIGWIDPENGDIEYAPKFQGRATITADTSTDTAYMEFSSLRSEDTAVYYCLYQEGSWGQGTTVTVSS VL: DVVMTQSPLSLPVTLGQPASISCKSSQSLLNSDGKTYLNWLQQRPGQSPRRLIYLVSKLDSGVPDRFTGSGSGTDFTLKISRVEAEDVGVYYCWQGTHFPFTFGGGTKVEIKR
– | – | 2.18 µg/mL | 1.2 | humanized KFCC-GY4 antibody CSR01-VH5/VK1 (antibody, human IgG4, V domains shown, also called VH5/VK1 (GY4 variant); CSR01-VH5NK1) VH: EVQLVQSGAEVKKPGASVKVSCTASGFNIKDYYIHWVRQAPGQGLEWIGWIDPENGDIEYAPKFQGRATITADTSTDTAYMELSSLRSEDTAVYYCLYQEGSWGQGTTVTVSS VL: not shown
